Measurements: the supplement of paper PMC7125110
± gives the standard error. For some assays here: This sample holds only a part of the variants without activity.

B1: glmS ribozyme (parent)
chain: AUAAAAGCGCCAGAACUACAGAAAUGUAGUUGACGAGGAGGAGGUUUAUCGAAUUUUCGGCGGAUGCCUCCAAA

Key:
Details in all cases: with glucosamine-6-phosphate
[1] = variants of: B1; assay: kcat; higher = faster cleavage; RNA array
In short: (§1)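 Glucosamine-6-phosphate in HEPES/KCl/Mg(OAc)2 buffer, at 40 μM to 10 mM, was flowed over barcoded ribozyme variants transcribed in situ by E. coli RNA polymerase on sequenced MiSeq chips. Tracking was through a hybridised Cy3 probe at 37 °C. kobs, kcat and KM came from exponential decay fits and weighted Michaelis–Menten fits of normalised per-tile medians.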

[2] = variants of: B1; assay: KM; higher = weaker cofactor use; RNA array
In short: as §1

[3] = variants of: B1; assay: self-cleavage kobs at 640 uM GlcN6P; higher = faster cleavage; RNA array
In short: as §1

[4] = variants of: B1; assay: self-cleavage kobs at 10000 uM GlcN6P; higher = faster cleavage; RNA array
In short: as §1

[5] = variants of: B1; assay: self-cleavage kobs at 40 uM GlcN6P; higher = faster cleavage; RNA array
In short: as §1

[6] = variants of: B1; assay: self-cleavage kobs at 160 uM GlcN6P; higher = faster cleavage; RNA array
In short: as §1

[7] = variants of: B1; assay: self-cleavage kobs at 2500 uM GlcN6P; higher = faster cleavage; RNA array
In short: as §1

Variant	kcat [1] [s⁻¹]	KM [2] [µM]	self-cleavage kobs at 640 uM GlcN6P [3] [s⁻¹]	self-cleavage kobs at 10000 uM GlcN6P [4] [s⁻¹]	self-cleavage kobs at 40 uM GlcN6P [5] [s⁻¹]	self-cleavage kobs at 160 uM GlcN6P [6] [s⁻¹]	self-cleavage kobs at 2500 uM GlcN6P [7] [s⁻¹]
AUAAAAGCGCCAGAACUACAGAAAUGUAGAUGACGAGGAGGAGGUCUAUCGAAUUUUCGGCGGAUGCCUCCAAA [U30A U46C]	0.000377 ± 6.9e-05	1730 ± 750	0.000117 ± 3.5e-05	0.000332 ± 7e-05			
AUAAAAGCGCCAGAACUACAGAAAUGUAGUUGACGAGGAGGAGGUUGAUCGAAUUUUCGGCGGGUGCCUCCAAA [U47G A64G]	0.0089 ± 0.0018	1570 ± 460	0.00203 ± 0.00049	0.00828 ± 0.0015	0.000278 ± 4.5e-05	0.000742 ± 0.00017	0.00542 ± 0.0013
AUAAAAGCGCCAGAACUACAGAAAUGUAGUUGACGAGGAGGAGGUUUAUCGAAUUUUCGGCUGAUGCAUCCAAA [G62U C68A]	1.34e-05 ± 8.7e-07	129 ± 56					
AUAAAAGCGCCAGGUCUACAGAAAUGUAGUUGACGAGGAGGAGGUUUAUCGAAUUUUCGGCGGAUGCGUCCAAA [A14G A15U C68G]	8.39e-05 ± 2.5e-05		4.44e-05 ± 1.3e-05	7.97e-05 ± 2.3e-05		5.83e-05 ± 2.5e-05	9.14e-05 ± 2.3e-05
AUAAAAGCGCAAGAACUACAGAAAUGUAGUUGACGAGGAGGAGGUUUAUCGAAUUUUCGACGGAUGCCUCCAAA [C11A G60A]	< 1e-05						
AUAAAAGCGCCAGAACUACAGAAAUGUAGUUGACGAGGAGGAGGUUAAUCGGAUUUUCGGCGGAUGCCUCCAAA [U47A A52G]	0.00213 ± 0.00047	5080 ± 1600	0.000221 ± 3.3e-05	0.00146 ± 0.0002	3.28e-05 ± 1.5e-05	8.42e-05 ± 1.9e-05	0.000661 ± 9.9e-05
AUAAAAGCGCCAGAACUACAGAAAUGUAGUUGACGAAGAGGAGGUUUAUCGGAUUUUCGGCGGAUGCCUCCAAA [G37A A52G]	0.000162 ± 8.6e-06	3420 ± 440		0.000121 ± 1.5e-05			6.77e-05 ± 1.2e-05
AUAAAAGCGCCAGAACUACAGAAAUGUAGUUGACGAGGAGGAGGUUUAUCGAAUUUUCAGCGGAUGCCUCUAAA [G59A C71U]	6.15e-05 ± 1.4e-06	1210 ± 130		5.51e-05 ± 6.9e-06	< 1e-05		4.05e-05 ± 7.8e-06
